Reference: patent US20210206848A1 (Stanford University, published 2021)

T1: extracellular region of human CD45 (human, UniProt P08575 26-577)
T1 construct: also called hCD45
T1 sequence: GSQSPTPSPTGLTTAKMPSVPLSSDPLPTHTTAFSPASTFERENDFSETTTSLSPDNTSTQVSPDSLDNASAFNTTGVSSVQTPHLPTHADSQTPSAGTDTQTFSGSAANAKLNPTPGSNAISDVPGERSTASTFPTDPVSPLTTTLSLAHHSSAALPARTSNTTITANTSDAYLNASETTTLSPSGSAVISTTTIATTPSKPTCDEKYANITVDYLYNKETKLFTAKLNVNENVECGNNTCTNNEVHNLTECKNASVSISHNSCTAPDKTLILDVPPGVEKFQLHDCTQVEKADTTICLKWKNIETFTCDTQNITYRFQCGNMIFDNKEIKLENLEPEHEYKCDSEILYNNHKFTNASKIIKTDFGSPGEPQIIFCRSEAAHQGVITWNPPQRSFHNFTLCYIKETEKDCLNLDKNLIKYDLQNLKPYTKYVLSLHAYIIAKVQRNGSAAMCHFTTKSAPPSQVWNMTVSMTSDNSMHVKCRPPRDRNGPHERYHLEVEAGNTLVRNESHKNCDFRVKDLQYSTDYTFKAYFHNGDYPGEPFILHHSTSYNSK


Assays:
[1] = biological target: T1, extracellular region of human CD45; experiment: SPR; target CD45 extracellular region
[2] = biological target: T2, extracellular region of human PD-1 (human); experiment: SPR; target PD-1 extracellular region
T2 construct: also called hPD-1
T2 sequence (chain, as listed by the source limits assumed): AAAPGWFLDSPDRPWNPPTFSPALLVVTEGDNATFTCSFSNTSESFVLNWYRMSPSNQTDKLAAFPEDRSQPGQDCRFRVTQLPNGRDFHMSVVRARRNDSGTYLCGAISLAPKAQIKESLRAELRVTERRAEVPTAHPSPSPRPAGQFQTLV

[3] = biological target: T1, extracellular region of human CD45; experiment: SPR
[4] = biological target: T2, extracellular region of human PD-1; experiment: SPR

| Binder | Kd [1] | Kd [2] | Kd [3] | Kd [4] |
| --- | --- | --- | --- | --- |
| CD45-PD1(Nivo)-Stabilized (bispecific antibody, also called αCD45-PD1(Nivo); αCD45-PD1 (Nivo)) QVQLVESGAEVKKPGASVKVSCKASGYTFTNYIIHWVKQEPGQGLEWIGYFNPYNHGTKYNEKFKGRATLTADKSISTAYMELSSLTSEDTAVYYCARSGPYAWFDTWGQGTTVTVSSGGGGSEIVLTQSPATLSLSPGERATLSCRASQSVSSYLAWYQQKPGQAPRLLIYDASNRATGIPARFSGSGSGTDFTLTISSLEPEDFAVYYCQQSSNWPRTFGQTKVEIKRRADAAAAGGGGSGGGGSGGGGSGGGGTGGGGSQVQLVESGGGVVQPGRSLRLDCKASGITFSNSGMHWVRQAPGKGLEWVAVIWYDGSKRYYADSVKGRFTISRDNSKNTLFLQMNSLTAEDTAVYYCATNDDYWGQGTLVTVSSGGGGSDILLTQSPATLSLSPGERATLSCRASQNIGTSIQWYQQKPGQAPRLLIRSSSESISGISSRFSGSGSGTDFTLTISSLEPEDFAVYYCQQSNTWPFTFGQGTKLEIKAAAHHHHHHHH | ~300 nM | ~6 nM |  |  |
| CD45-PD1(VHH) (bispecific antibody, Anti-CD45 scFv fused to an anti-human PD-1 nanobody (VHH, from US20170137517A1); also called αCD45-PD1(VHH); 2nd generation anti-human RIPR-PD1) DVQLVESGGGVVQPGGSLRLSCAASGSIASIHAMGWFRQAPGKEREFVAVITWSGGITYYADSVKGRFTISRDNSKNTVYLQMNSLRPEDTALYYCAGDKHQSSWYDYWGQGTLVTVSSGGGSLEVLFQGPGSGSDILLTQSPATLSLSPGERATLSCRASQNIGTSIQWYQQKPGQAPRLLIRSSSESISGISSRFSGSGSGTDFTLTISSLEPEDFAVYYCQQSNTWPFTFGQGTKLEIKGGSTRSSSSGGGGSGGGGQVQLVESGAEVKKPGASVKVSCKASGYTFTNYIIHWVKQEPGQGLEWIGYFNPYNHGTKYNEKFKGRATLTADKSISTAYMELSSLRSEDTAVYYCARSGPYAWFDTWGQGTTVTVSSAAAHHHHHHHH |  |  | ~700 nM | ~5 nM |
